# System: Modified p53 (human p53 engineered to contain the HIV-1 protease cleavage site VSFNFPQITL upstream o)
substance,measurement,value
HIV-1 protease,SDS-PAGE migration of purified p53 fusion protein after co-expression with HIV-1 protease (cleavage),"The mutagenized p53 migrated more quickly than the wild-type protein (as did p53Δ30), but only after coexpression with HIV-1 protease."

# From patent publication US6429298
